# Measured values: US4286063A, “Method for producing thrombolytic preparation” (The Green Cross Corporation, priority 1978, dated 1981)
# Assays:
# [1] = test system: urokinase; assay: Effect of heat stabilizers on residual urokinase activity after heat treatment; format: physicochemical; conditions: for residual urokinase activity in the presence of heat stabilizer: after heat treatment, concentrations of Table 2
# [2] = test system: urokinase; assay: Residual urokinase activity and molecular weight distribution after dialysis against outer liquids of different pH; format: physicochemical, human urine; conditions: 40 hours at 4° C.
# Description: The interrelationship between pH and the ratio of residual urokinase activity as well as the molecular weight distribution:
# The resulting solution was dialyzed for 40 hours at 4° C. against an outer liquid of water, a 1 M sodium acetate buffer solution of pH 3.0, 4.0, 5.0, 6.0, 7.0, 8.0, 9.0, 11.0 or 12.0 or a 1/15 M phosphate buffer solution, while renewing the outer liquid at a time interval of 8 hours. After completion of the dialysis, the ratio of residual activity was assayed and molecular weight distribution was roughly evaluated by the molecular sieving by means of gel filtration technique.
# [3] = test system: urokinase; assay: Stability of urokinase in heat treatment (60° C., 10 hours), dependence on pH; format: physicochemical
# Description: Dependence of the stability of urokinase in heat treatment on pH:
# A phosphate buffer solution was added in various concentrations to an aqueous urokinase solution [specific activity, 15,000 IU/mg; protein concentration, 0.02% (W/V)] to prepare samples of urokinase solutions having pH of 4, 5, 6, 7, 8, 9 and 10. Each sample was heated at 60° C. for 10 hours and the residual activity was compared. After the heat treatment, the heat stabilizer was removed by dialysis and the urokinase activity was assayed to calculate the ratio of residual activity by taking the specific activity before heating as 100%.
# [4] = heat stabilizer concentration 0.1 M
# [5] = heat stabilizer concentration 5%
# [6] = heat stabilizer concentration 10%
# [7] = heat stabilizer concentration 15%
compound,measurement,setting,value
"N=C(N)NCCC[C@H](N)C(=O)O [Arginine, arginine]",residual urokinase activity in the presence of heat stabilizer,[1],79%
same,Ratio of residual urokinase activity,[1]; [4],79%
O=C(O)CN(CCN(CC(=O)O)CC(=O)O)CC(=O)O [EDTA],Ratio of residual urokinase activity,[1]; heat stabilizer concentration 0.1%,23%
"NCC(=O)O [Glycine, glycine]",residual urokinase activity in the presence of heat stabilizer,[1],65-75%
same,Ratio of residual urokinase activity,[1]; [5],65%
same,Ratio of residual urokinase activity,[1]; [6],70%
same,Ratio of residual urokinase activity,[1]; [7],75%
"NCCCC[C@H](N)C(=O)O [Lysine, lysine]",residual urokinase activity in the presence of heat stabilizer,[1],78%
same,Ratio of residual urokinase activity,[1]; [4],78%
"OC[C@@H](O)[C@@H](O)[C@H](O)[C@H](O)CO [Mannit, mannitol]",residual urokinase activity in the presence of heat stabilizer,[1],78%
same,Ratio of residual urokinase activity,[1]; [5],73%
same,Ratio of residual urokinase activity,[1]; [6],73%
"[Cl-].[Na+] [Sodium chloride, sodium chloride]",residual urokinase activity in the presence of heat stabilizer,[1],71-75%
same,Ratio of residual urokinase activity,[1]; heat stabilizer concentration 0.15 M,71%
same,Ratio of residual urokinase activity,[1]; heat stabilizer concentration 0.3 M,75%
"OC[C@H]1O[C@@](CO)(O[C@H]2O[C@H](CO)[C@@H](O)[C@H](O)[C@H]2O)[C@@H](O)[C@@H]1O [Sucrose, sucrose]",residual urokinase activity in the presence of heat stabilizer,[1],75-78%
same,Ratio of residual urokinase activity,[1]; [5],75%
same,Ratio of residual urokinase activity,[1]; [6],77%
same,Ratio of residual urokinase activity,[1]; [7],78%
Gelatin,residual urokinase activity in the presence of heat stabilizer,[1],88-100%
same,Ratio of residual urokinase activity,[1]; heat stabilizer concentration 0.5%,88%
same,Ratio of residual urokinase activity,[1]; heat stabilizer concentration 1.0%,91%
same,Ratio of residual urokinase activity,[1]; heat stabilizer concentration 3.0%,89%
urokinase,Activity after dialysis,"[2]; Run 1, pH of outer liquid 3","6,324 IU"
same,Ratio of residual activity,"[2]; Run 1, pH of outer liquid 3",65
same,Activity after dialysis,"[2]; Run 2, pH of outer liquid 4","6,314 IU"
same,Ratio of residual activity,"[2]; Run 2, pH of outer liquid 4",64
same,Activity after dialysis,"[2]; Run 3, pH of outer liquid 5","6,426 IU"
same,Ratio of residual activity,"[2]; Run 3, pH of outer liquid 5",66
same,Activity after dialysis,"[2]; Run 4, pH of outer liquid 6","7,252 IU"
same,Ratio of residual activity,"[2]; Run 4, pH of outer liquid 6",74
same,Activity after dialysis,"[2]; Run 5, pH of outer liquid 7","8,296 IU"
same,Ratio of residual activity,"[2]; Run 5, pH of outer liquid 7",85
same,Activity after dialysis,"[2]; Run 6, pH of outer liquid 8","10,290 IU"
same,Ratio of residual activity,"[2]; Run 6, pH of outer liquid 8",105
same,Activity after dialysis,"[2]; Run 7, pH of outer liquid 9","9,672 IU"
same,Ratio of residual activity,"[2]; Run 7, pH of outer liquid 9",99
same,Activity after dialysis,"[2]; Run 8, pH of outer liquid 11","9,016 IU"
same,Ratio of residual activity,"[2]; Run 8, pH of outer liquid 11",92
same,Activity after dialysis,"[2]; Run 9, pH of outer liquid 12","8,722 IU"
same,Ratio of residual activity,"[2]; Run 9, pH of outer liquid 12",89
same,Activity after dialysis,[2]; outer liquid H2O,"8,514 IU"
same,Ratio of residual activity,[2]; outer liquid H2O,86
same,Ratio of residual urokinase activity,"[1]; heat stabilizer absent, pH 6.8 with 0.1 M phosphate buffer",65%
same,Ratio of residual urokinase activity,"[1]; no phosphate buffer, pH not adjusted",0%
same,ratio of residual activity after heat treatment,"[3]; pH 7, phosphate buffer",52%
same,ratio of residual activity after heat treatment,"[3]; pH 8, phosphate buffer",65%
same,ratio of residual activity after heat treatment,"[3]; pH 9, phosphate buffer",50%
